Reference: the nanobody polyreactivity screen of Harvey et al. (2022)

Test: yeast display, Sf9 membrane polyspecificity reagent, FACS + sequencing; frameworks hold sequencing errors
How it was run: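 Genes from sorted yeast were amplified by colony PCR, read by MiSeq 2 × 250 sequencing and filtered on CDR length. These cells carried a synthetic nanobody library in Saccharomyces cerevisiae BJ5465 and were sorted by FACS into low and high (top ~1%) gates on anti-HA and streptavidin fluorescence. Polyreactivity is labelled according to the gate of origin.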

| Sequence | polyreactivity (PSR sort gate) |
| --- | --- |
| QVQLVESGGGLVQAGGSLRLSCAASGRTFATNVMGWYRQAPGKERELVAAISRSGGRTYYADSVKGRFTISRDNAKNTVYLQMNSLKPEDTAVYYCAARRRRFYYQYYRYDYWGQGTQVTVSS | high polyreactivity |
| QVQLVESGGGLVQAGGSLRLSCAAYGIIFRRNAMGWYRQAPGKERELVAAISWSGGTTYYADSVKGRFTISRDNAKYTVYLQIISLKPEDTAVYYCAAGLISRPYGYDYWGQCTQVTVSS | high polyreactivity |
| QVQLVESGGGLVKAGGSLRLTCAASGSIFKIYSMGWYIQAPGKERELVATITWSTGTTYYADSVKGRFTISRDNAKNTVFLQMNSLKPEDTAVYYCATEPSWYHGFIDPRGYWGQATQVTVSS | low polyreactivity |
| QVQLVESGGGLVHAGGSLRLSCAASGSIYYGNAMGWYIQAPGKERELVARISWSGSNTRYADSVKGRFTISRDNSKITVYLQMNSLKPEDTAVYYCNRGSYQTSFFRYDYWGQGTQVTVSS | high polyreactivity |
| QVQLVESGGGLVQAGASLRLSCAASGRILKTYAMGSYRQAPGKERELVAAITGRGGRTYYADSVKGRFTISRDNAKNTFYLQMISLKPEDTAVYYCAAYYGPSRSLYYYWGQGSQVTVSS | high polyreactivity |
| QVQLVESGGGLVQAGGSLRLSCAASAITVKRDVMGWYRQAPGKERELVAAISRTGGSTYYADSVKGRFTISRDNAKNTVYLQMNSLKPEDTAVYYCAAATCPGIYDYWGQGTQVTVSS | high polyreactivity |
| QVQLVESGGGLVQAGGSLRLSCAASGFTFSRYAMGWYRQAPGKERELVAAITRGGSTNYADSVKGRFTISRDNAKNTVYLQMNSLKPEDTAVYYCAVRIRYSTNAYYYWGQGTQVTVSS | high polyreactivity |
| QVQLVESGGGLVQAGGSLRLSCAASGSTFPSYAMGWYRQAPGKERELVAAINSGGGTNYADSVKGRFTISRDTAKNTVYLQMNSLKPEDTAVYYCAKARYDYTKPEGGYWGQGTHVTVSS | low polyreactivity |
| QVQLVESGGGLVQAGGSLRLSCAASGGIFAYYAMGWYRQAPGKERELVAAITSRGGRTYYADSVKGRFTISRDNAKNTVYLQMNSLKPEDTAVYYCAAEYINSNYQWYYYWGQGTQVTVSS | high polyreactivity |
| QVQLVESVGGVVQAGGSLRLSCAASGRIFDRNAKGWYSQAPGKERELVAAITSGGSTNYADSVKGRFTISRDNAKNTVYLQMNSLKPEDTAVYYCANDFTSRYAPPEAYDYWGQGTQVTVSS | low polyreactivity |
| QLQLVESGGGLVQAGGSLRLSCAASGLIFYDNMAWSRPAPAKEMELVAAISSSGGSTSYADSVKGRFSISRDNAKNTVYLQLISLKPEDTAVYYCAADSYPAYLGFVGFDYWGQGTQVTVSS | low polyreactivity |
| QVQLVESGGGLVQAGGSLRLSCAASGRTFWFNAMGWYRQAPGKERELVASITLSGGSTYYADSVKGRFTISRDNAKITVYLQMNSLKPEDTAVYYCAADQTVHISSYDYWGQGTQVTVSS | low polyreactivity |
| QVQLVESGGGLVQAGGSLRLSCAASGRTFGRYAMGWYRPAPGKERELVAAIRWTGGGTYYADSVKGRFTISRDNAKNTVYLQMNSLKPEDTAVYYCAADDYYYSVYRYEYWGEGTQVTVSS | high polyreactivity |
| QVLLVESGGGLVQAGGSLRLSCAASGISIRAKAMGGYRQAPGKVRELVAAITWSGGDPYYADSVKGRFTISRDNAKNTVYLQMNSLKPEDTAVYYCNALQPGLGSPLGEYDYWGQGTQVTVSS | low polyreactivity |
| QVQLVESGGGLVQAGGSLRLSCAASGSTFSYNAMGWYRQAPGKERELVAAIRWGGGSTYYADSVKGRFTISCDNAKNTVYLQMNSLKPEDTAVYYCARYGYRRVGSRWAEFDYWGQGTQVTVSS | high polyreactivity |
| QVQLVESGGGLVQAGGSLRLSCAASGSTFDVYAMGWYRQAPGKERELVATISTSGGDTYYADSVKGRFTISRDNAKNTVYLQMNSLNPEDTAVYYCNVSASYYSPDPKVLVRYDYWGQGTQVTVSS | low polyreactivity |
| QVQLVESGGGLVQAGGSLRLSCAATGITFTRYAMGWYRQAPGKEREFVAAIRRSGGNTYYADSVKGRFTISRDNAKNTVYILMNSLKPEDTAVYYCAASFRKTSPTRLVDYWGQGTQVTVSS | low polyreactivity |
